Results on one molecule are retold here after paper PMC6155255, “Synthetic Peptides Derived from Bovine Lactoferricin Exhibit Antimicrobial Activity against E. coli ATCC 11775, S. maltophilia ATCC 13636 and S. enteritidis ATCC 13076” (Molecules : A Journal of Synthetic Chemistry and Natural …, 2017).

A word on the MBC: it is the smallest concentration meeting the test's criterion for killing. The MIC is the lowest concentration found to suppress growth.

The test system of test [1] is E. coli ATCC 11775. The class given is cell-based, Escherichia coli. As to conditions: E. coli ATCC 11775, value in brackets (µM), 24 h at 37 °C, performed twice. The procedure: (§1) The MIC and MBC were determined using a microdilution assay. In brief, bacterial strains were incubated for 18 to 24 h at 37 °C in an MH broth until an optical density of 0.15 to 0.30 (620 nm) was obtained. 90 µL of Mueller-Hinton broth (MHB) were mixed with 90 µL of peptide (440 µg/mL), and using a 96-well microtiter plate peptide, serial dilution (200, 100, 50, 25, 12.5, and 6.2 µg/mL) was performed. 10 µL of inoculum (2 × 10^6 CFU/mL) was added to each well. Final volume in each well was 100 µL. Then they were incubated for 24 h at 37 °C; and the absorbance at 620 nm was measured using an Asys Expert Plus ELISA reader. To determine the MBC, an aliquot was taken from each well and was spread onto a MHA plate. After 24 h at 37 °C, the CFU/mL was determined. Each of these tests was performed twice.

Test [2] concerns S. maltophilia ATCC 13636. The class given is cell-based, Stenotrophomonas maltophilia. As to conditions: S. maltophilia ATCC 13636, value in brackets (µM), 24 h at 37 °C, performed twice. As to the method:
as §1

Test [3] concerns S. enteritidis ATCC 13076. The class given is cell-based, Salmonella enteritidis. As to conditions: S. enteritidis ATCC 13076, value in brackets (µM), 24 h at 37 °C, performed twice. The procedure:
as §1

The test system of test [4] is E. coli ATCC 11775. The class given is cell-based, Escherichia coli. As to conditions: 200 µg/well, 8 mm wells in Mueller-Hinton agar, 48 h at 37 °C. The procedure: (§2) These tests were carried out following the methodology reported in [36]. Briefly, an inoculum aliquot (200 µL; 2 × 10^6 CFU/mL) was placed on Mueller-Hinton (MH) Agar plates, mixed, and allowed to solidify. Wells were drilled using a punch of 8 mm, and then each hollow was filled with 100 µL of peptide (2000 µg/mL). Incubation for 48 h at 37 °C was then performed. As a non-growth control, ciprofloxacin 1.25 µg/mL was used for all tested strains. Sterile water was used as a growth control.

For test [5], the system named is S. maltophilia ATCC 13636. It counts as cell-based, Stenotrophomonas maltophilia. As to conditions: 200 µg/well, 8 mm wells in Mueller-Hinton agar, 48 h at 37 °C. The procedure:
as §2

Test [6] concerns S. enteritidis ATCC 13076. The class given is cell-based, Salmonella enteritidis. As to conditions: 200 µg/well, 8 mm wells in Mueller-Hinton agar, 48 h at 37 °C. As to the method:
as §2

Test [7] has as its system various strains of E. coli (0111, L361, ATCC 25922, wild strain, and IID-861). As to conditions: various strains of E. coli (0111, L361, ATCC 25922, wild strain, IID-861); cited from earlier work. The procedure:
For BLF, a Minimum Inhibitory Concentration (MIC) and Minimum Bactericidal Concentration (MBC) larger than 200 µg/mL against the evaluated strains were found (Table 1), implying that high concentrations of the protein are required to achieve antibacterial activity. […] Furthermore, its purification is a long and expensive process.

The mark [8] stands for this setting: microdilution, Mueller-Hinton broth.

B1: BLF: Bovine lactoferrin, 703 amino acids, 80 kDa glycoprotein; obtained from Sigma-Aldrich (protein, UniProt P24627 20-708, looked up)
Lactotransferrin: APRKNVRWCTISQPEWFKCRRWQWRMKKLGAPSITCVRRAFALECIRAIAEKKADAVTLDGGMVFEAGRDPYKLRPVAAEIYGTKESPQTHYYAVAVVKKGSNFQLDQLQGRKSCHTGLGRSAGWIIPMGILRPYLSWTESLEPLQGAVAKFFSASCVPCIDRQAYPNLCQLCKGEGENQCACSSREPYFGYSGAFKCLQDGAGDVAFVKETTVFENLPEKADRDQYELLCLNNSRAPVDAFKECHLAQVPSHAVVARSVDGKEDLIWKLLSKAQEKFGKNKSRSFQLFGSPPGQRDLLFKDSALGFLRIPSKVDSALYLGSRYLTTLKNLRETAEEVKARYTRVVWCAVGPEEQKKCQQWSQQSGQNVTCATASTTDDCIVLVLKGEADALNLDGGYIYTAGKCGLVPVLAENRKSSKHSSLDCVLRPTEGYLAVAVVKKANEGLTWNSLKDKKSCHTAVDRTAGWNIPMGLIVNQTGSCAFDEFFSQSCAPGADPKSRLCALCAGDDQGLDKCVPNSKEKYYGYTGAFRCLAEDVGDVAFVKNDTVWENTNGESTADWAKNLNREDFRLLCLDGTRKPVTEAQSCHLAVAPNHAVVSRSDRAAHVKQVLLHQQALFGKNGKNCPDKFCLFKSETKNLLFNDNTECLAKLGGRPTYEEYLGTEYVTAIANLKKCSTSPLLEACAFLTR
For B1, the MBC (in the test with E. coli ATCC 11775 [1] (aliquot spread on MHA plate); in test [2] (aliquot spread on MHA plate); in test [3] (aliquot spread on MHA plate)) was above 2.5 µM each time. The MIC (against E. coli ATCC 11775 [1] (setting [8]); in test [2] (setting [8]); in test [3] (setting [8])) was above 2.5 µM throughout. The inhibition halo (in the test with E. coli ATCC 11775 [4]; in test [5]; in test [6]) was ~ 9 mm each time. Also, the “BLF concentration required for exhibiting an antibacterial effect” value in test [7] is on record as “greater than 200 µg/mL”.
